# From patent US12104181B2, “Compositions and methods for treating viral infections targeting TRIM7” (THE BOARD OF REGENTS OF THE UNIVERSITY OF TEXAS SYSTEM, priority 2021, dated 2024)
# Values joined by “and” are separate entries in the source; they are usually repeats but may differ in a detail not shown here. Identical values can stand only once.
# B1: RNF25: human RING type E3 ligase expressed from lentiviral vector; listed twice (protein, UniProt Q96BH1 1-459, looked up)
# E3 ubiquitin-protein ligase …: MAASASAAAGEEDWVLPSEVEVLESIYLDELQVIKGNGRTSPWEIYITLHPATAEDQDSQYVCFTLVLQVPAEYPHEVPQISIRNPRGLSDEQIHTILQVLGHVAKAGLGTAMLYELIEKGKEILTDNNIPHGQCVICLYGFQEKEAFTKTPCYHYFHCHCLARYIQHMEQELKAQGQEQEQERQHATTKQKAVGVQCPVCREPLVYDLASLKAAPEPQQPMELYQPSAESLRQQEERKRLYQRQQERGGIIDLEAERNRYFISLQQPPAPAEPESAVDVSKGSQPPSTLAAELSTSPAVQSTLPPPLPVATQHICEKIPGTRSNQQRLGETQKAMLDPPKPSRGPWRQPERRHPKGGECHAPKGTRDTQELPPPEGPLKEPMDLKPEPHSQGVEGPPQEKGPGSWQGPPPRRTRDCVRWERSKGRTPGSSYPRLPRGQGAYRPGTRRESLGLESKDGS
# modifications: lentiviral expression
# B2: TRIM65: human RING type E3 ligase expressed from lentiviral vector (protein, UniProt Q6PJ69 2-517, looked up)
# E3 ubiquitin-protein ligase …: AAQLLEEKLTCAICLGLYQDPVTLPCGHNFCGACIRDWWDRCGKACPECREPFPDGAELRRNVALSGVLEVVRAGPARDPGPDPGPGPDPAARCPRHGRPLELFCRTEGRCVCSVCTVRECRLHERALLDAERLKREAQLRASLEVTQQQATQAEGQLLELRKQSSQIQNSACILASWVSGKFSSLLQALEIQHTTALRSIEVAKTQALAQARDEEQRLRVHLEAVARHGCRIRELLEQVDEQTFLQESQLLQPPGPLGPLTPLQWDEDQQLGDLKQLLSRLCGLLLEEGSHPGAPAKPVDLAPVEAPGPLAPVPSTVCPLRRKLWQNYRNLTFDPVSANRHFYLSRQDQQVKHCRQSRGPGGPGSFELWQVQCAQSFQAGHHYWEVRASDHSVTLGVSYPQLPRCRLGPHTDNIGRGPCSWGLCVQEDSLQAWHNGEAQRLPGVSGRLLGMDLDLASGCLTFYSLEPQTQPLYTFHALFNQPLTPVFWLLEGRTLTLCHQPGAVFPLGPQEEVLS
# B3: RNF122: human RING type E3 ligase expressed from lentiviral vector (protein, UniProt Q9H9V4 1-155, looked up)
# RING finger protein 122: MHPFQWCNGCFCGLGLVSTNKSCSMPPISFQDLPLNIYMVIFGTGIFVFMLSLIFCCYFISKLRNQAQSERYGYKEVVLKGDAKKLQLYGQTCAVCLEDFKGKDELGVLPCQHAFHRKCLVKWLEVRCVCPMCNKPIASPSEATQNIGILLDELV
# B4: TRIM67: human RING type E3 ligase expressed from lentiviral vector (protein, UniProt Q6ZTA4 1-783, looked up)
# Tripartite motif-containing …: MEEELKCPVCGSLFREPIILPCSHNVCLPCARTIAVQTPDGEQHLPQPLLLSRGSGLQAGAAAAASLEHDAAAGPACGGAGGSAAGGLGGGAGGGGDHADKLSLYSETDSGYGSYTPSLKSPNGVRVLPMVPAPPGSSAAAARGAACSSLSSSSSSITCPQCHRSASLDHRGLRGFQRNRLLEAIVQRYQQGRGAVPGTSAAAAVAICQLCDRTPPEPAATLCEQCDVLYCSACQLKCHPSRGPFAKHRLVQPPPPPPPPAEAASGPTGTAQGAPSGGGGCKSPGGAGAGATGGSTARKFPTCPEHEMENYSMYCVSCRTPVCYLCLEEGRHAKHEVKPLGAMWKQHKAQLSQALNGVSDKAKEAKEFLVQLKNILQQIQENGLDYEACLVAQCDALVDALTRQKAKLLTKVTKEREHKLKMVWDQINHCTLKLRQSTGLMEYCLEVIKENDPSGFLQISDALIKRVQVSQEQWVKGALEPKVSAEFDLTLDSEPLLQAIHQLDFIQMKCRVPPVPLLQLEKCCTRNNSVTLAWRMPPFTHSPVDGYILELDDGAGGQFREVYVGKETLCTIDGLHFNSTYNARVKAFNSSGVGPYSKTVVLQTSDVAWFTFDPNSGHRDIILSNDNQTATCSSYDDRVVLGTAAFSKGVHYWELHVDRYDNHPDPAFGVARASVVKDMMLGKDDKAWAMYVDNNRSWFMHCNSHTNRTEGGVCKGATVGVLLDLNKHTLTFFINGQQQGPTAFSHVDGVFMPALSLNRNVQVTLHTGLEVPTNLGRPKLSGN
# B5: TRIM75: human RING type E3 ligase expressed from lentiviral vector; listed twice (protein, UniProt A6NK02 1-468, looked up)
# Tripartite motif-containing …: MAVAAALTGLQAEAKCSICLDYLSDPVTIECGHNFCRSCIQQSWLDLQELFPCPVCRHQCQEGHFRSNTQLGRMIEIAKLLQSTKSNKRKQEETTLCEKHNQPLSVFCKEDLMVLCPLCTQPPDHQGHHVRPIEKAAIHYRKRFCSYIQPLKKQLADLQKLISTQSKKPLELREMVENQRQELSSEFEHLNQFLDREQQAVLSRLAEEEKDNQQKLSANITAFSNYSATLKSQLSKVVELSELSELELLSQIKIFYESENESSPSIFSIHLKRDGCSFPPQYSALQRIIKKFKVEIILDPETAHPNLIVSEDKKRVRFTKRKQKVPGFPKRFTVKPVVLGFPYFHSGRHFWEIEVGDKSEWAIGICKDSLPTKARRPSSAQQECWRIELQDDGYHAPGAFPTPLLLEVKARAIGIFLDYEMGEISFYNMAEKSHICTFTDTFTGPLRPYFYVGPDSQPLRICTGTVCE
# B6: TRIM72: human RING type E3 ligase expressed from lentiviral vector; listed twice (protein, UniProt Q6ZMU5 1-477, looked up)
# Tripartite motif-containing …: MSAAPGLLHQELSCPLCLQLFDAPVTAECGHSFCRACLGRVAGEPAADGTVLCPCCQAPTRPQALSTNLQLARLVEGLAQVPQGHCEEHLDPLSIYCEQDRALVCGVCASLGSHRGHRLLPAAEAHARLKTQLPQQKLQLQEACMRKEKSVAVLEHQLVEVEETVRQFRGAVGEQLGKMRVFLAALEGSLDREAERVRGEAGVALRRELGSLNSYLEQLRQMEKVLEEVADKPQTEFLMKYCLVTSRLQKILAESPPPARLDIQLPIISDDFKFQVWRKMFRALMPALEELTFDPSSAHPSLVVSSSGRRVECSEQKAPPAGEDPRQFDKAVAVVAHQQLSEGEHYWEVDVGDKPRWALGVIAAEAPRRGRLHAVPSQGLWLLGLREGKILEAHVEAKEPRALRSPERRPTRIGLYLSFGDGVLSFYDASDADALVPLFAFHERLPRPVYPFFDVCWHDKGKNAQPLLLVGPEGAEA
# B7: TRIM74: human RING type E3 ligase expressed from lentiviral vector (protein, UniProt Q86UV6 1-250, looked up)
# Tripartite motif-containing …: MAWQVSLLELEDWLQCPICLEVFKESLMLQCGHSYCKGCLVSLSYHLDTKVRCPMCWQVVDGSSSLPNVSLAWVIEALRLPGDPEPKVCVHHRNPLSLFCEKDQELICGLCGLLGSHQHHPVTPVSTVCSRMKEELAALFSELKQEQKKVDELIAKLVKNRTRIVNESDVFSWVIRREFQELRHPVDEEKARCLEGIGGHTRGLVASLDMQLEQAQGTRERLAQAECVLEQFGNEDHHEFIWKFHSMASR
# modifications: lentiviral expression
# notes: human RING type E3 ligase expressed from lentiviral vector
# B8: RNF212: human RING type E3 ligase expressed from lentiviral vector (protein, UniProt Q495C1 1-297, looked up)
# Probable E3 SUMO-protein …: MANWVFCNRCFQPPHRTSCFSLTNCGHVYCDACLGKGKKNECLICKAPCRTVLLSKHTDADIQAFFMSIDSLCKKYSRETSQILEFQEKHRKRLLAFYREKISRLEESLRKSVLQIEQLQSMRSSQQTAFSTIKSSVSTKPHGCLLPPHSSAPDRLESMEVDLSPSPIRKSEIAAGPARISMISPPQDGRMGPHLTASFCFIPWLTLSKPPVPGECVISRGSPCFCIDVCPHWLLLLAFSSGRHGELTNSKTLPIYAEVQRAVLFPFQQAEGTLDTFRTPAVSVVFPLCQFERKKSF
# B9: RNF144B: human RING type E3 ligase expressed from lentiviral vector (protein, UniProt Q7Z419 1-303, looked up)
# E3 ubiquitin-protein ligase …: MGSAGRLHYLAMTAENPTPGDLAPAPLITCKLCLCEQSLDKMTTLQECQCIFCTACLKQYMQLAIREGCGSPITCPDMVCLNHGTLQEAEIACLVPVDQFQLYQRLKFEREVHLDPYRTWCPVADCQTVCPVASSDPGQPVLVECPSCHLKFCSCCKDAWHAEVSCRDSQPIVLPTEHRALFGTDAEAPIKQCPVCRVYIERNEGCAQMMCKNCKHTFCWYCLQNLDNDIFLRHYDKGPCRNKLGHSRASVMWNRTQVVGILVGLGIIALVTSPLLLLASPCIICCVCKSCRGKKKKHDPSTT
# modifications: lentiviral expression
# notes: as for B7
# B10: TRIM68: human RING type E3 ligase expressed from lentiviral vector (protein, UniProt Q6AZZ1 1-485, looked up)
# E3 ubiquitin-protein ligase …: MDPTALVEAIVEEVACPICMTFLREPMSIDCGHSFCHSCLSGLWEIPGESQNWGYTCPLCRAPVQPRNLRPNWQLANVVEKVRLLRLHPGMGLKGDLCERHGEKLKMFCKEDVLIMCEACSQSPEHEAHSVVPMEDVAWEYKWELHEALEHLKKEQEEAWKLEVGERKRTATWKIQVETRKQSIVWEFEKYQRLLEKKQPPHRQLGAEVAAALASLQREAAETMQKLELNHSELIQQSQVLWRMIAELKERSQRPVRWMLQDIQEVLNRSKSWSLQQPEPISLELKTDCRVLGLREILKTYAADVRLDPDTAYSRLIVSEDRKRVHYGDTNQKLPDNPERFYRYNIVLGSQCISSGRHYWEVEVGDRSEWGLGVCKQNVDRKEVVYLSPHYGFWVIRLRKGNEYRAGTDEYPILSLPVPPRRVGIFVDYEAHDISFYNVTDCGSHIFTFPRYPFPGRLLPYFSPCYSIGTNNTAPLAICSLDGED
# B11: TRIML1: human RING type E3 ligase expressed from lentiviral vector (protein, UniProt Q8N9V2 1-468, looked up)
# Probable E3 ubiquitin-protein …: MSTADLMENLREELTCFICLDYFSSPVTTECGHSFCLVCLLRSWEEHNTPLSCPECWRTLEGPHFQSNERLGRLASIARQLRSQVLQSEDEQGSYGRMPTTAKALSDDEQGGSAFVAQSHGANRVHLSSEAEEHHREKLQEILNLLRVRRKEAQAVLTHEKERVKLCQEETKTCKQVVVSEYMKMHQFLKEEEQLQLQLLEQEEKENMRKLRNNEIKLTQQIRSLSKMIAQIESSSQSSAFESLEEVRGALERSEPLLLQCPEATTTELSLCRITGMKEMLRKFSTEITLDPATANAYLVLSEDLKSVKYGGSRQQLPDNPERFDQSATVLGTQIFTSGRHYWEVEVGNKTEWEVGICKDSVSRKGNLPKPPGDLFSLIGLKIGDDYSLWVSSPLKGQHVREPVCKVGVFLDYESGHIAFYNGTDESLIYSFPQASFQEALRPIFSPCLPNEGTNTDPLTICSLNSHV
# Test system: coxsackievirus B3 (CVB3-GFP)
# Format: cell-based
# Details: HeLa cells, GFP-positive cells within RFP-positive gate, replicate R1
row,Molecule,Percent Infected R1
1,B1,90.6% and 89.2%
2,B2,56.8%
3,B3,90.3%
4,B4,58.9%
5,B5,66.8% and 89.7%
6,B6,60.2% and 88.1%
7,B7,71.6%
8,B8,91.1%
9,B9,93.9%
10,B10,62%
11,B11,77.6%

# Same assay, conditions: HeLa cells, replicate R1
row,Molecule,Z score R1
1,B1,0.03 and 0.01
2,B2,−0.404
3,B3,0.02
4,B4,−0.378
5,B5,−0.277 and 0.01
6,B6,−0.361 and −0.01
7,B7,−0.216
8,B8,0.03
9,B9,0.07
10,B10,−0.338
11,B11,−0.14
